“Also recorded” adds a separate entry of the source.
Legend:
CD40 = target: T1, CD40 (Homo sapiens, UniProt P25942); conditions: human monocyte-derived DC cultures; cited from earlier work
T1 construct: validated in vitro in human monocyte-derived DC cultures; endogenous in cells; host or cells: human monocyte-derived dendritic cells

[1] = system: metastatic pancreatic ductal adenocarcinoma; assay: OPTIMIZE-1 anti-tumour activity per RECIST v. 1.1 (ORR, BOR, DCR, DoR, time to progression, PFS, OS); assay type: in vivo, human
Method: The interim analysis was based on objective response rate (ORR) observed for all patients dosed at the mitazalimab RP2D. The interim analysis included efficacy data up to 17 weeks of study treatment (8 cycles for mFOLFIRINOX and 4 cycles for gemcitabine plus nab-paclitaxel).
A CT scan is performed at screening (within 28 days of first dose), 9 weeks after start of study treatment (end of cycle 4 for mFOLFIRINOX combination and at end of Cycle 2 for gemcitabine plus nab-paclitaxel treatment) and thereafter at every 8th week assuming no treatment delays. Additional CT scans may be performed at the discretion of the Investigator at unscheduled visits. The CT scans were evaluated according to RECIST v. […] Patients with response (PR or CR) can have a confirmatory CT scan at least 4 weeks later to confirm the response.
The evaluation of tumour response was done according to RECIST v. 1.1 by the investigational sites using CT scans according to Example 3 RECIST v. […] Patients with PD can discontinue study treatment. However, patients with suspected progression are allowed to continue on treatment if they are considered to be clinically stable in the opinion of the Investigator until clinical or radiological progression is documented.
For the interim analysis, the ORR was based on the response evaluation after 8 cycles for mitazalimab in combination with mFOLFIRINOX or 4 cycles for mitazalimab in combination with gemcitabine plus nab-paclitaxel (i.e., approximately 4 months after first dose). […] In addition, ORR was presented for each study visit. Patients not evaluable for ORR and who completed at least 2 cycles were considered as non-responders.
All secondary efficacy endpoint were presented using descriptive statistics. Best Overall Response (BOR) for each patient will be defined as the best response from RECIST v. 1.1 categories CR, PR, SD and PD at any time during the study. Disease control rate will be defined as either CR, PR or SD at each visit as determined by RECIST v. […] The duration of response (DoR) was defined as number of days from initial response of CR or PR to progressive disease or death due to underlying disease, whichever came first. Duration of Stable Disease (SD) was defined as number of days from first dose of mitazalimab to progressive disease or death, whichever came first. Time to next anti-cancer therapy was defined as number of days from the time from first dose of mitazalimab to next treatment initiated.

[2] = 450 μg/kg mitazalimab, N = 5, Table 42
[3] = 450 μg/kg mitazalimab, N = 5, safety set, Table 25
[4] = 900 μg/kg mitazalimab + mFOLFIRINOX, FAS N = 23, futility analysis, responses need not be confirmed
[5] = 900 μg/kg mitazalimab + mFOLFIRINOX, FAS N = 57
[6] = 900 μg/kg mitazalimab + mFOLFIRINOX, FAS N = 57, including unconfirmed responses
[7] = 900 μg/kg mitazalimab + mFOLFIRINOX, FAS N = 57, 95% CI (5.8-9.4)
[8] = 900 μg/kg mitazalimab + mFOLFIRINOX, FAS N = 57, first block of Table 49
[9] = 900 μg/kg mitazalimab + mFOLFIRINOX, FAS N = 57, second block of Table 49
[10] = 900 μg/kg mitazalimab + mFOLFIRINOX, FAS, n = 18
[11] = 900 μg/kg mitazalimab, N = 23, FAS, data cut-off 2022 Dec. 8
[12] = 900 μg/kg mitazalimab, N = 38, safety set, Table 25
[13] = 900 μg/kg mitazalimab, N = 65, Table 42
[14] = Overall, N = 43, safety set, Table 25
[15] = futility analysis (FAS), 900 μg/kg mitazalimab and mFOLFIRINOX, 23 patients
[16] = individual patients, End of Treatment visit, 900 μg/kg mitazalimab + mFOLFIRINOX, futility analysis
[17] = individual patients, Unscheduled visit, 900 μg/kg mitazalimab + mFOLFIRINOX, futility analysis
[18] = individual patients, visit Cycle 4, 900 μg/kg mitazalimab + mFOLFIRINOX, futility analysis
[19] = individual patients, visit Cycle 8, 900 μg/kg mitazalimab + mFOLFIRINOX, futility analysis

T1 sequence (P25942 21-277): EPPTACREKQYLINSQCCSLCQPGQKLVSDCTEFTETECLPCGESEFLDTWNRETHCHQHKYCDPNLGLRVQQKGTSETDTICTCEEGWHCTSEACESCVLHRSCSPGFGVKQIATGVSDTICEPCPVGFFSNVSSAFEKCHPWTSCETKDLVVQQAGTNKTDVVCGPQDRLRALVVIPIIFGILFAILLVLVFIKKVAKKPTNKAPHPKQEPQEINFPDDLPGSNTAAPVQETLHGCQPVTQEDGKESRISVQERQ

B1: Mitazalimab: agonistic, human monoclonal (IgG1) antibody targeting CD40 (antibody, chains of the INN, looked up, V domains shown)
VH: EVQLLESGGGLVQPGGSLRLSCAASGFTFSTYGMHWVRQAPGKGLEWLSYISGGSSYIFYADSVRGRFTISRDNSENALYLQMNSLRAEDTAVYYCARILRGGSGMDLWGQGTLVTVSS
VL: QSVLTQPPSASGTPGQRVTISCTGSSSNIGAGYNVYWYQQLPGTAPKLLIYGNINRPSGVPDRFSGSKSGTSASLAISGLRSEDEADYYCAAWDKSISGLVFGGGTKLTVL
CD40
  activation markers (CD80, CD86) on DCs and release of IL-12: up-regulation of activation markers on the surface of DCs
[1]; [2]
  Discontinued study: Death due to disease progression, number of patients: 4
  Discontinued study: Death due to disease progression, percentage relative to number discontinued: 80.0%
  Discontinued treatment: Death, number of patients: 0
  Discontinued treatment: Death, percentage relative to number discontinued: 0.0%
  Discontinued treatment: No longer clinically benefiting, number of patients: 0
  Discontinued treatment: No longer clinically benefiting, percentage relative to number discontinued: 0.0%
  Discontinued treatment: Progressive disease, number of patients: 4
  Discontinued treatment: Progressive disease, percentage relative to number discontinued: 80.0%
[1]; [3]
  Discontinued study: Death due to disease progression, number of patients: 2
  Discontinued study: Death due to disease progression, percentage of patients: (40.0) %
  Discontinued treatment: Clear clinical deterioration, number of patients: 0
  Discontinued treatment: Clear clinical deterioration, percentage of patients: (0.0) %
  Discontinued treatment: Death due to disease progression, number of patients: 2
  Discontinued treatment: Death due to disease progression, percentage of patients: (40.0) %
  Discontinued treatment: Progressive disease, number of patients: 2
  Discontinued treatment: Progressive disease, percentage of patients: (40.0) %
[1]; 900 μg/kg Mitazalimab (N = 57) with mFOLFIRINOX, CR, PR or SD as best overall response, RECIST 1.1
  Disease control rate (FAS): 44 (77.2)
[1]; 900 μg/kg mitazalimab + mFOLFIRINOX, FAS N = 23, futility analysis
  Disease control rate (CR, PR or SD), %: (91.3) %
[1]; [4]
  Best Overall Response: Partial response, %: (52.2) %
  Best Overall Response: Progressive disease, %: (8.7) %
  Best Overall Response: Stable disease, %: (39.1) %
  Responders (complete or partial response, RECIST 1.1), %: (52.2) %
[1]; [5]
  BOR: Not evaluable, number of patients: 1
  BOR: Not evaluable, percentage of patients: (1.8) %
  Time to progression: Censored patients, %: (54.4) %
  Time to progression: Patients with event, %: (45.6) %
[1]; [6]
  BOR: Complete response, number of patients: 0
  BOR: Complete response, percentage of patients: (0.0) %
  BOR: Partial response, number of patients: 25
  BOR: Partial response, percentage of patients: (43.9) %
  BOR: Progressive disease, number of patients: 12
  BOR: Progressive disease, percentage of patients: (21.1) %
  BOR: Stable disease, number of patients: 19
  BOR: Stable disease, percentage of patients: (33.3) %
  ORR: Confidence Interval of responders (two-sided exact binomial 90%): 32.6-55.6
  ORR: Responders, number of patients: 25
  ORR: Responders, percentage of patients: (43.9) %
[1]; [7]
  Progression-free survival: Median time to event: 7.2 months
  Time to progression: Median time to event: 7.2 months
[1]; [8]
  Progression-free survival: Censored patients, %: (52.6) %
  Progression-free survival: Patients with event, %: (47.4) %
[1]; [9]
  Overall survival: Censored patients, %: (78.9) %
  Overall survival: Patients with event, %: (21.1) %
[1]; [10]
  Duration of response: Censored patients, %: (72.2) %
  Duration of response: Patients with event, %: (27.8) %
[1]; 900 μg/kg mitazalimab + mFOLFIRINOX, FAS, n = 18, 95% CI (1.9-3.7)
  Time to response: Median time to event: 2.2 months
[1]; 900 μg/kg mitazalimab + mFOLFIRINOX, FAS, n = 18, 95% CI (5.5; NE)
  Duration of response: Median time to event: 8.7 months
[1]; [11]
  Discontinued study: Death due to disease progression, number of patients: 1
  Discontinued study: Death due to disease progression, percentage of patients: (4.3) %
  Discontinued treatment: Clear clinical deterioration, number of patients: 1
  Discontinued treatment: Clear clinical deterioration, percentage of patients: (4.3) %
  Discontinued treatment: Death due to disease progression, number of patients: 1
  Discontinued treatment: Death due to disease progression, percentage of patients: (4.3) %
  Discontinued treatment: Progressive disease, number of patients: 2
  Discontinued treatment: Progressive disease, percentage of patients: (8.7) %
[1]; [12]
  Discontinued study: Death due to disease progression, number of patients: 1
  Discontinued study: Death due to disease progression, percentage of patients: (2.6) %
  Discontinued treatment: Clear clinical deterioration, number of patients: 1
  Discontinued treatment: Clear clinical deterioration, percentage of patients: (2.6) %
  Discontinued treatment: Death due to disease progression, number of patients: 1
  Discontinued treatment: Death due to disease progression, percentage of patients: (2.6) %
  Discontinued treatment: Progressive disease, number of patients: 3
  Discontinued treatment: Progressive disease, percentage of patients: (7.89) %
[1]; [13]
  Discontinued study: Death due to disease progression, number of patients: 15
  Discontinued study: Death due to disease progression, percentage relative to number discontinued: 83.3%
  Discontinued treatment: Death, number of patients: 1
  Discontinued treatment: Death, percentage relative to number discontinued: 3.0%
  Discontinued treatment: No longer clinically benefiting, number of patients: 3
  Discontinued treatment: No longer clinically benefiting, percentage relative to number discontinued: 9.1%
  Discontinued treatment: Progressive disease, number of patients: 19
  Discontinued treatment: Progressive disease, percentage relative to number discontinued: 57.6%
[1]; [14]
  Discontinued study: Death due to disease progression, number of patients: 3
  Discontinued study: Death due to disease progression, percentage of patients: (7.0) %
  Discontinued treatment: Clear clinical deterioration, number of patients: 1
  Discontinued treatment: Clear clinical deterioration, percentage of patients: (2.3) %
  Discontinued treatment: Death due to disease progression, number of patients: 3
  Discontinued treatment: Death due to disease progression, percentage of patients: (7.0) %
  Discontinued treatment: Progressive disease, number of patients: 5
  Discontinued treatment: Progressive disease, percentage of patients: (11.6) %
[1]; Overall, Table 42
  Discontinued treatment: Death, number of patients: 1
  Discontinued treatment: Death, percentage relative to number discontinued: 2.6%
  Discontinued treatment: No longer clinically benefiting, number of patients: 3
  Discontinued treatment: No longer clinically benefiting, percentage relative to number discontinued: 7.7%
  Discontinued treatment: Progressive disease, number of patients: 24
  Discontinued treatment: Progressive disease, percentage relative to number discontinued: 61.5%
[1]; [15]
  ORR: 52.2%
  disease control rate: 91.3%
[1]; futility analysis, 900 μg/kg mitazalimab and mFOLFIRINOX
  responders with a confirmed response via a subsequent scan: 8 out of 12
[1]; [16]
  Non-target lesion(s) response: Non-CR/non-PD
  Overall response: PD (progressive disease (PD))
  Target lesion(s) response: PD (progressive disease (PD))
[1]; [17]
  Non-target lesion(s) response: Non-CR/non-PD
  Overall response: PD (progressive disease (PD)); also recorded: SD (stable disease (SD))
  Target lesion(s) response: PD (progressive disease (PD)); also recorded: SD (stable disease (SD))
[1]; [18]
  Non-target lesion(s) response: Non-CR/non-PD
  Overall response: SD (stable disease (SD))
  Target lesion(s) response: SD (stable disease (SD))
[1]; [19]
  Non-target lesion(s) response: Non-CR/non-PD
  Overall response: SD (stable disease (SD)); also recorded: PD (progressive disease (PD))
  Target lesion(s) response: SD (stable disease (SD)); also recorded: PD (progressive disease (PD))
[1]; individual patients, 900 μg/kg mitazalimab + mFOLFIRINOX, futility analysis, responses need not be confirmed
  Best Overall Response: PD (progressive disease (PD)); also recorded: SD (stable disease (SD))

From patent publication US20260055200A1, “COMBINATION THERAPIES” (Alligator Bioscience AB, priority 2022, published 2026)
